Patent US20210284749A1 (ABL BIO, published 2021)
Numbering of substitutions follows the chain as printed.

What was measured:
[1] = biological target: T1, rat BCMA (1-49) fused to the Fc region of human IgG1 (rat; human); experiment: ELISA on 100 ng coated rat BCMA, antibody titrated, anti-human Fab HRP, absorbance 450 nm
T1 construct: Sino Biological Inc. 80156-R01H; also called 80156-R01H; not shown: Fc region of human IgG1
T1 chain: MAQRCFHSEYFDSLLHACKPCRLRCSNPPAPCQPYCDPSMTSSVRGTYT
Method: (§1) 100 ng of human, monkey, mouse, and rat BCMA antigens prepared in Example 1.1 were coated on the bottom of the plate, and then coated with 3% BSA to block nonspecific binding. Using the selected anti-BCMA IgG antibodies as primary antibodies, and the anti-human Fab HRP (1:20000 dilution) as a secondary antibody, ELISA assay was performed as described in Example 1.3.
(§2) Absorbancies at 450 nm measured with a microplate reader are shown in FIG. 3, and half maximal effective concentrations (EC₅₀) (nM) are shown in Table 9.

[2] = biological target: T2, monkey (Rhesus) BCMA (1-53) fused to the Fc region of human IgG1 (monkey (Rhesus); human, UniProt Q02223 1-54); experiment: ELISA on 100 ng coated rhesus BCMA, antibody titrated, anti-human Fab HRP, absorbance 450 nm
T2 construct: Sino Biological Inc. 90103-C02H; also called monkey BCMA; Monkey BCMA (1-53); not shown: Fc region of human IgG1
Method: as §1, §2

[3] = biological target: T3, human BCMA expressed on cell surface (H929, OPM-2, CHOK1-hBCMA cells) (human, UniProt Q02223 1-184); experiment: FACS on OPM-2 cells, 10 µg/ml antibody, anti-human Fc-FITC; open histogram shifted right of the filled control
T3 construct: also called cell-surface BCMA; BCMA on cell surface
T3 sequence: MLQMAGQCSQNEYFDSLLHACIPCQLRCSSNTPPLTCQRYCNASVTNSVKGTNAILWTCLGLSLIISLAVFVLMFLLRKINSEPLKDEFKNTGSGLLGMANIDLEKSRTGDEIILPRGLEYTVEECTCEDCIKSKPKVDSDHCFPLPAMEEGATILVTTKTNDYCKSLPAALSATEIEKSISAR
Method: (§3) Multiple myeloma cancer cells H929 (ATCC, CRL9068™) and OPM-2 cell line (DSMZ, ACC 50), which are known to express BCMA, were prepared, and human BCMA-overexpressed CHOK1-hBCMA cell line (constructed by ABIBio) were prepared.
(§4) 10 μg/ml of the seven IgG antibodies (B58, 5A6, 5D5, 5B5, 1H, 2G, and 5G) purified in Example 1.4 was added to the prepared cells, incubated at 4° C. for 1 hour, and then washed two times with a PBS buffer solution. The anti-human Fc-FITC was diluted in 1:400, incubated at 4° C. for 1 hour, and then washed with a PBS buffer solution. These processes were repeated. In FIGS. 2A and 2B, MFI indicates mean fluorescence intensity.

[4] = biological target: T3, human BCMA expressed on cell surface …; experiment: FACS on H929 cells, 10 µg/ml antibody, anti-human Fc-FITC; open histogram shifted right of the filled control
Method: as §3, §4

[5] = biological target: T4, recombinant human BCMA (ELISA antigen, construct not specified) (human, UniProt Q02223 1-54); experiment: ELISA on 100 ng coated human BCMA, antibody titrated, anti-human Fab HRP, absorbance 450 nm
T4 construct: Fc 1-51; Fc/His 1-51; Fc 4-48) was coated in these ELISAs; also called recombinant BCMA; recombinant protein
T4 sequence: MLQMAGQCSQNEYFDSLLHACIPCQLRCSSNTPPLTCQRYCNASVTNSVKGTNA
Method: as §1, §2

[6] = biological target: T5, mouse BCMA (1-49) fused to the Fc region of human IgG1 (mouse; human, UniProt O88472 1-49); experiment: ELISA, 100 ng coated antigen
T5 construct: Sino Biological Inc. 50076-M01H; also called 50076-M01H; not shown: Fc region of human IgG1
T5 chain: T1 chain with R4Q, R22H, P31T, M40V, R45K
Method: as §1, §2

[7] = biological target: T1, rat BCMA (1-49) fused to the Fc region …; experiment: ELISA, 100 ng coated antigen
Method: as §1, §2

[8] = biological target: T2, monkey (Rhesus) BCMA (1-53) fused to …; experiment: ELISA, 100 ng coated antigen
Method: as §1, §2

[9] = biological target: T4, recombinant human BCMA (ELISA antigen, …); experiment: ELISA, 100 ng coated antigen
Method: as §1, §2

[10] = biological target: T4, recombinant human BCMA (ELISA antigen, …); experiment: ELISA on coated recombinant human BCMA, antibody titrated, HRP anti-Fab detection, absorbance 450 nm
Method: Specific binding abilities of the anti-BCMA IgG antibodies isolated in Example 1.4 to recombinant BCMA protein were analyzed by ELISA.
(§5) Using recombinant human BCMA or monkey BCMA as an antigen, and HRP-conjugated Fab polychronal antibody reagent (Pierce, 31414) as a secondary antibody, ELISA was performed as described in Example 1.3.

[11] = biological target: T2, monkey (Rhesus) BCMA (1-53) fused to …; experiment: BLI (Octet), monkey BCMA
[12] = biological target: T5, mouse BCMA (1-49) fused to the Fc …; experiment: ELISA on 100 ng coated mouse BCMA, antibody titrated, anti-human Fab HRP, absorbance 450 nm
Method: as §1, §2

human BCMA-Fc/His (1-51) = biological target: T6, human BCMA-Fc/His (1-51) (human, UniProt Q02223 1-51); experiment: BLI (Octet), antigen on Ni-NTA biosensor, IgG in solution
T6 construct: also called recombinant human BCMA-Fc/His; recombinant human BCMA-His (Sino Biological Inc.); not shown: Fc region; C-terminal His tag
T6 sequence: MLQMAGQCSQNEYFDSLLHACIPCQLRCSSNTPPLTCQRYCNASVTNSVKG
Method: A 96-well black microplate was mounted on a Biosensor tray case, 200 μl of 1XKB was added to each of the 8 wells, and then 8 Ni-NTA biosensors (Fortebio) were inserted thereto for hydration for 10 minutes. For antigen fixation, 5 μg/ml of recombinant human BCMA-His (Sino Biological Inc.) was diluted using 1XKB. Experiments were performed with a threshold of 0.5 to 1.0 nm, and Octet Data Acquisition 9.0 software was activated to create an Octet program template. The first step was for Baseline 1, the second step was for loading, and the threshold was fixed to 0.5 to 1.0 nm. In the third step, which was for Baseline 2, association for 5 minutes and dissociation for 20 minutes were performed. A plate temperature was fixed to 30° C., and the prepared buffer solution was placed in order into a new 96-well black microplate according to the Octet program template. 200 μl of 1XKB used as Baseline 1 and recombinant human BCMA-Fc/His which is an antigen to be loaded were diluted to 5 μg/ml, and 200 μl of the dilution was added thereto. After adding 200 μl of 1XKB used as Baseline 2, 200 μl of the antibody to be reacted with the antigen was dispensed, and the instrument was operated. After completion of the experiment, an association constant (kon), a dissociation constant (kdis), and an equilibrium dissociation constant (KD) for each antibody were analyzed and calculated with Octet Analysis 9.0 software.

[13] = biological target: T2, monkey (Rhesus) BCMA (1-53) fused to …; experiment: ELISA on coated monkey (Rhesus) BCMA, antibody titrated, HRP anti-Fab detection, absorbance 450 nm
Method: as §5

[14] = biological target: T4, recombinant human BCMA (ELISA antigen, …); experiment: ELISA on coated recombinant human BCMA, antibody titrated, HRP anti-Fab detection, absorbance 450 nm; remark: listed apart in the source
Method: as §5

B1: anti-BCMA IgG antibody 5B5 (antibody, V domains shown)
VH: EVQLLESGGGLVQPGGSLRLSCAASGFTFSGHYWSWVRQAPGKGLEWVSTVSGSGGDTFYADSVKGRFTISRDNSKNTLYLQMNSLRAEDTAVYYCARGHSVMDVWGQGTLVTVSS
VL: EIVLTQSPGTLSLSPGERATLSCRASQGIDSYVAWYQQKPGQAPRLLIYDASLRATGIPDRFSGSGSGTDFTLTISRLEPEDFAVYYCQQYNSWPITFGQGTKLEIKR
notes: also called 5B5 antibody
With B1 the “EC50 (read off the curve)” value [1] was ~0.02 µg/mL, the “EC50 (read off the curve)” value [2] was ~0.01 µg/mL and the MFI [3] was 20.9. The MFI [4] was 37.4, the “EC50 (read off the curve)” value [5] was ~0.01 µg/mL and the EC50 [6] was 110 nM. It also gave an EC50 [7] of 65 nM, an EC50 [8] of 82 nM and an EC50 [9] of 63 nM. The “EC50 (read off the curve)” value [10] was ~0.1 µg/mL, the Kd [11] was 0.461 nM and the koff [11] was 0.00221 s⁻¹. The kon [11] was 4.79e+06 M⁻¹ s⁻¹, the “EC50 (read off the curve)” value [12] was ~0.01 µg/mL and the Kd (human BCMA-Fc/His (1-51)) was 0.202 nM. The koff (human BCMA-Fc/His (1-51)) was 0.00025 s⁻¹ and the kon (human BCMA-Fc/His (1-51)) was 1.24e+06 M⁻¹ s⁻¹.

B2: anti-BCMA IgG antibody 2F8 (antibody, V domains shown)
VH: EVQLLESGGGLVQPGGSLRLSCAASGFTFSNYGMSWVRQAPGKGLEWVSEIIPIFDTSNYAQKFQGRFTISRDNSKNTLYLQMNSLRAEDTAVYYCAKIPGNRHDYWGQGTLVTVSS
VL: QSVLTQPPSASGTPGQRVTISCTRMQRQSDWYQQLPGTAPKLLIYDNNKRPLGVPDRFSGSKSGTSASLAISGLRSEDEADYYCQSYDSNAYVVFGGGTKLTVLG
With B2 the “EC50 (read off the curve)” value [10] was ~0.07 µg/mL, the Kd (human BCMA-Fc/His (1-51)) was 104 nM and the koff (human BCMA-Fc/His (1-51)) was 0.0152 s⁻¹. It also gave a kon (human BCMA-Fc/His (1-51)) of 147000 M⁻¹ s⁻¹.

B3: anti-BCMA IgG antibody 2G (antibody, V domains shown)
VH: EVQLVESGGGLVQPGGSLRLSCAASGFTFSNYAMSWVRQAPGKGLEWVSAISSSGSTIYYADSVKGRFTISRDNSKNTLYLQMNSLRAEDTAVYYCAKAGYYGSIYAFDYWGQGTLVTVSS
VL: DIQMTQSPSSLSASVGDRVTITCRASQSISSYLNWYQQKPGKAPKLLIYATSRLQSGVPSRFSGSGSGTDFTLTISSLQPEDFATYYCQQSSSFPWTFGQGTKVEIKR
With B3 the binding result [13] was “binds”, the “EC50 (read off the curve)” value [14] was ~0.04 µg/mL and the Kd (human BCMA-Fc/His (1-51)) was 1.08 nM. The koff (human BCMA-Fc/His (1-51)) was 0.00078 s⁻¹ and the kon (human BCMA-Fc/His (1-51)) was 720000 M⁻¹ s⁻¹.

B4: anti-BCMA IgG antibody 5C3 (antibody, V domains shown)
VH: EVQLLESGGGLVQPGGSLRLSCAASGFTFSDYYIHWVRQAPGKGLEWVSAISGSGGSTYYADSVKGRFTISRDNSKNTLYLQMNSLRAEDTAVYYCASDLGDTTFDSWGQGTLVTVSS
VL: EIVLTQSPGTLSLSPGERATLSCQASDDISNYLNWYQQKPGQAPRLLIYGVSNRASGIPDRFSGSGSGTDFTLTISRLEPEDFAVYYCQQSYSTPPITFGQGTKLEIKR
B4 was tested, and the “EC50 (read off the curve)” value [10] was ~0.9 µg/mL, the Kd (human BCMA-Fc/His (1-51)) was 16.4 nM and the koff (human BCMA-Fc/His (1-51)) was 0.00966 s⁻¹. For the same binder, the kon (human BCMA-Fc/His (1-51)) was 591000 M⁻¹ s⁻¹.

B5: anti-BCMA IgG antibody 4H9 (antibody, V domains shown)
VH: EVQLLESGGGLVQPGGSLRLSCAASGFTFSGYSMSWVRQAPGKGLEWVSSIYHTGYTYYNPSLKSRFTISRDNSKNTLYLQMNSLRAEDTAVYYCARYKSGAFDIWGQGTLVTVSS
VL: EIVLTQSPGTLSLSPGERATLSCRASQSVSRNLAWYQQKPGQAPRLLIYGVSSRATGIPDRFSGSGSGTDFTLTISRLEPEDFAVYYCQQYGSSPPTFGQGTKVEIKR
With B5 the “EC50 (read off the curve)” value [10] was ~0.01 µg/mL, the Kd (human BCMA-Fc/His (1-51)) was 1.29 nM and the koff (human BCMA-Fc/His (1-51)) was 0.00179 s⁻¹. It also gave a kon (human BCMA-Fc/His (1-51)) of 1.38e+06 M⁻¹ s⁻¹.

B6: anti-BCMA IgG antibody 1H (antibody, V domains shown)
VH: EVQLVESGGGLVQPGGSLRLSCAASGFTFSNYAMSWVRQAPGKGLEWVSGISHSGSSTYYADSVKGRFTISRDNSKNTLYLQMNSLRAEDTAVYYCAKHVYIIEFESLDIWGQGTLVTVSS
VL: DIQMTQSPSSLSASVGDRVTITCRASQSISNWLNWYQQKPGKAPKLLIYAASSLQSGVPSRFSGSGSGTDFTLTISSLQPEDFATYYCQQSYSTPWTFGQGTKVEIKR
With B6 the “EC50 (read off the curve)” value [13] was ~0.2 µg/mL, the “EC50 (read off the curve)” value [14] was ~0.08 µg/mL and the Kd (human BCMA-Fc/His (1-51)) was 1.45 nM. It also gave a koff (human BCMA-Fc/His (1-51)) of 0.000592 s⁻¹ and a kon (human BCMA-Fc/His (1-51)) of 409000 M⁻¹ s⁻¹.

B7: anti-BCMA IgG antibody 5G (antibody, V domains shown)
VH: B6 VH with H53Q, V100A, L108M
VL: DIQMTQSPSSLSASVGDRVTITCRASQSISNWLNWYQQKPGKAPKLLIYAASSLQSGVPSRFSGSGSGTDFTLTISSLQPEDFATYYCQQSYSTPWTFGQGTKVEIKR
With B7 the binding result [13] was “binds”, the Kd (human BCMA-Fc/His (1-51)) was 361 nM and the koff (human BCMA-Fc/His (1-51)) was 0.0143 s⁻¹. The kon (human BCMA-Fc/His (1-51)) was 39700 M⁻¹ s⁻¹.
